In article PMC4612432 (The journal of physical chemistry. B, 2013):

T1: Wild-type human lysozyme (human) (UniProt P61626)
T1 sequence: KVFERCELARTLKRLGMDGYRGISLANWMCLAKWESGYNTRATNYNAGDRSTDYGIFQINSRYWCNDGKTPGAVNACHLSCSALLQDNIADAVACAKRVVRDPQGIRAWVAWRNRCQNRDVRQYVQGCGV


Tests used:
[1] = target: T1, Wild-type human lysozyme (human); assay: SPR
[2] = target: T1, Wild-type human lysozyme (human); assay: ITC
[3] = target: Wild-type human lysozyme (Homo sapiens, UniProt P61626); assay: SPR

Row | Kd [1] | koff [1] | kon [1] | Kd [2] | Kd [3] | koff [3] | kon [3] | Binder
1 | 310 nM | 0.128 s⁻¹ | 410000 M⁻¹ s⁻¹ | 2500 nM | – | – | – | cAb-HuL5G (VHH) VHH: QVQLQESGGGSVQAGGSLRLSCSASGLSTTVMAWFRQAPGKEREGVAAIYTGDGFPYYADSVKGRFTISQDNAKNTVYLQMNSLKPEDTAMYYCAAKTGAFSYGSLWWMSRAYNHWGQGTEVTVSS
2 | – | – | – | – | 460 nM | 0.088 ± 0.009 s⁻¹ | 190000 M⁻¹ s⁻¹ | cAb-HuL5 (VHH) VHH: QVQLQESGGGSVQAGGSLRLSCEASGLSTTVMAWFRQAPGKEREGVAAIYTGDGFPYYADSVKGRFTISQDNAKNRMYLQMNSLEPEDTAMYYCAAKTGAFSYGSLWWMSRAYNHWGQGTQVTVSS
